Results taken from publication PMC3717276, “Optimization and validation of mitochondria-based functional assay as a useful tool to identify BH3-like molecules selectively targeting anti-apoptotic Bcl-2 proteins” (BMC Biotechnology, 2013).
pIC50, pKd, pKi: −log10 of the molar value.

Assays:
[1] = target: Human Bcl-2 protein (isoform 2 construct), N-terminal 6xHis tagged recombinant protein (human); experiment: fluorescence polarisation; saturation experiments with FAM-Bid and Mcl-1 or Bcl-2 protein; assay buffer 100 mM potassium phosphate, pH 7.5, 100 ug/ml bovine gamma globulin, 0.02% sodium azide
[2] = target: Human Bcl-2 protein (isoform 2 construct), N-terminal 6xHis tagged recombinant protein (human); experiment: SPR; competitive solution binding: protein (20 nM) pre-incubated with tested BH3 peptide for at least 30 min, injected over immobilised biotin-Bim BH3 peptide; response at 30 s of dissociation
[3] = target: Human Bcl-2 protein (isoform 2 construct), N-terminal 6xHis tagged recombinant protein (human); experiment: fluorescence polarisation; competition: Mcl-1 (20 nM) or Bcl-2 (40 nM) pre-incubated with FAM-Bid (2 nM and 2.5 nM), tested BH3 peptide added, 2-3 h; 100 mM potassium phosphate, pH 7.5, 100 ug/ml bovine gamma globulin, 0.02% sodium azide; Ki calculated from IC50

| Substance | pKd [1] | pIC50 [2] | pKi [3] |
| --- | --- | --- | --- |
| 21-residue Bid BH3 peptide labeled at the N-terminus with 6-carboxyfluorescein succinimidyl ester (FAM-Bid) | 8.20 |  |  |
| Bid BH3 peptide (residues 79-99) |  | 7.29 | 7.95 |
